Data published in patent US20130209454A1.
Changes are numbered by the printed parent chain. Names and notes keep the numbering of the source.

How the values were obtained:
Assay in all cases: cell-based or functional assay
[1] = target: HIV-1 Env of strain 0330.v4.c3 (HIV-1)
[2] = target: HIV-1 Env of strain 0815.v3.c3 (HIV-1)
[3] = target: HIV-1 Env of strain 1056_10_TA11_1826 (HIV-1)
[4] = target: HIV-1 Env of strain 211-9 (HIV-1)
[5] = target: HIV-1 Env of strain 231965.c01 (HIV-1)
[6] = target: HIV-1 Env of strain 3103.v3.c10 (HIV-1)
[7] = target: HIV-1 Env of strain 3718.v3.c11 (HIV-1)
[8] = target: HIV-1 Env of strain 703357.C02 (HIV-1)
[9] = target: HIV-1 Env of strain C1080.c03 (HIV-1)
[10] = target: HIV-1 Env of strain C2101.c01 (HIV-1)
[11] = target: HIV-1 Env of strain CAAN5342.A2 (HIV-1)
[12] = target: HIV-1 Env of strain CNE21 (HIV-1)
[13] = target: HIV-1 Env of strain Ce0393_C3 (HIV-1)
[14] = target: HIV-1 Env of strain Ce703010054_2A2 (HIV-1)
[15] = target: HIV-1 Env of strain Du156.12 (HIV-1)
[16] = target: HIV-1 Env of strain Du422.1 (HIV-1)
[17] = target: HIV-1 Env of strain P0402_c2_11 (HIV-1)
[18] = target: HIV-1 Env of strain Q23.17 (HIV-1)
[19] = target: HIV-1 Env of strain QH0692.42 (HIV-1)
[20] = target: HIV-1 Env of strain R2184.c04 (HIV-1)
[21] = target: HIV-1 Env of strain T251-18 (HIV-1)
[22] = target: HIV-1 Env of strain THRO4156.18 (HIV-1)
[23] = target: HIV-1 Env of strain WITO4160.33 (HIV-1)
[24] = target: HIV-1 Env of strain ZM197M.PB7 (HIV-1)
[25] = target: HIV-1 Env of strain ZM53M.PB12 (HIV-1)
[26] = target: HIV-1 strain 0330.v4.c3 envelope (gp120) (HIV-1)
[27] = target: HIV-1 strain 1006_11_C3_1601 envelope (gp120) (HIV-1)
[28] = target: HIV-1 strain 231965.c01 envelope (gp120) (HIV-1)
[29] = target: HIV-1 strain 231966.c02 envelope (gp120) (HIV-1)
[30] = target: HIV-1 strain 3415.v1.c1 envelope (gp120) (HIV-1)
[31] = target: HIV-1 strain 3817.v2.c59 envelope (gp120) (HIV-1)
[32] = target: HIV-1 strain 620345.c01 envelope (gp120) (HIV-1)
[33] = target: HIV-1 strain 62357_14_D3_4589 envelope (gp120) (HIV-1)
[34] = target: HIV-1 strain 6480.v4.c25 envelope (gp120) (HIV-1)
[35] = target: HIV-1 strain 6535.3 envelope (gp120) (HIV-1)
[36] = target: HIV-1 strain 6545.v4.c1 envelope (gp120) (HIV-1)
[37] = target: HIV-1 strain 703357.C02 envelope (gp120) (HIV-1)
[38] = target: HIV-1 strain 928-28 envelope (gp120) (HIV-1)
[39] = target: HIV-1 strain Du156.12 envelope (gp120) (HIV-1)
[40] = target: HIV-1 strain Du172.17 envelope (gp120) (HIV-1)
[41] = target: HIV-1 strain Du422.1 envelope (gp120) (HIV-1)
[42] = target: HIV-1 strain Q23.17 envelope (gp120) (HIV-1)
[43] = target: HIV-1 strain Q461.e2 envelope (gp120) (HIV-1)
[44] = target: HIV-1 strain REJO4541.67 envelope (gp120) (HIV-1)
[45] = target: HIV-1 strain T251-18 envelope (gp120) (HIV-1)
[46] = target: HIV-1 strain T257-31 envelope (gp120) (HIV-1)
[47] = target: HIV-1 strain WITO4160.33 envelope (gp120) (HIV-1)
[48] = target: HIV-1 strain ZM135M.PL10a envelope (gp120) (HIV-1)
[49] = target: HIV-1 strain ZM197M.PB7 envelope (gp120) (HIV-1)
[50] = target: HIV-1 strain ZM249M.PL1 envelope (gp120) (HIV-1)

B1: NIH45-46^G54W IgG (antibody, name in Kabat numbering, V domains shown)
VH: QVRLSQSGGQMKKPGESMRLSCRASGYEFLNCPINWIRLAPGRRPEWMGWLKPRWGAVNYARKFQGRVTMTRDVYSDTAFLELRSLTSDDTAVYFCTRGKYCTARDYYNWDFEHWGRGAPVTVSS
VL: EIVLTQSPATLSLSPGETAIISCRTSQSGSLAWYQQRPGQAPRLVIYSGSTRAAGIPDRFSGSRWGADYNLSISNLESGDFGVYYCQQYEFFGQGTKVQVDI
neutralization IC50 [1]: 0.03 µg/mL | neutralization IC50 [2]: < 0.001 µg/mL | neutralization IC50 [3]: 0.024 µg/mL | neutralization IC50 [4]: 16.4 µg/mL | neutralization IC50 [5]: < 0.001 µg/mL | neutralization IC50 [6]: 0.2 µg/mL | improvement of neutralization potency over NIH45-46 [7]: 2000 fold | neutralization IC50 [7]: 0.01 µg/mL | neutralization IC50 [8]: 3.43 µg/mL | neutralization IC50 [9]: 0.2 µg/mL | neutralization IC50 [10]: 0.04 µg/mL | neutralization IC50 [11]: 0.07 µg/mL | neutralization IC50 [12]: 0.03 µg/mL | neutralization IC50 [13]: 0.013 µg/mL | neutralization IC50 [14]: 0.027 µg/mL | neutralization IC50 [15]: < 0.001 µg/mL | neutralization IC50 [16]: > 50 µg/mL | neutralization IC50 [17]: 0.003 µg/mL | neutralization IC50 [18]: 0.01 µg/mL | neutralization IC50 [19]: 0.37 µg/mL | neutralization IC50 [20]: 0.005 µg/mL | neutralization IC50 [21]: 0.26 µg/mL | neutralization IC50 [22]: 0.54 µg/mL | neutralization IC50 [23]: 0.01 µg/mL | neutralization IC50 [24]: 0.04 µg/mL | neutralization IC50 [25]: 0.04 µg/mL | neutralization IC80 [26]: 0.11 µg/mL | neutralization IC80 [27]: 0.008 µg/mL | neutralization IC80 [28]: 0.035 µg/mL | neutralization IC80 [29]: 0.11 µg/mL | neutralization IC80 [30]: 0.023 µg/mL | neutralization IC80 [31]: > 50 µg/mL | neutralization IC80 [32]: > 50 µg/mL | neutralization IC80 [33]: 0.07 µg/mL | neutralization IC80 [34]: 0.021 µg/mL | neutralization IC80 [35]: 0.13 µg/mL | neutralization IC80 [36]: > 50 µg/mL | neutralization IC80 [37]: 17.6 µg/mL | neutralization IC80 [38]: 0.25 µg/mL | neutralization IC80 [39]: 0.005 µg/mL | neutralization IC80 [40]: 42.9 µg/mL | neutralization IC80 [41]: > 50 µg/mL | neutralization IC80 [42]: 0.03 µg/mL | neutralization IC80 [43]: 0.091 µg/mL | neutralization IC80 [44]: 0.013 µg/mL | neutralization IC80 [45]: 0.92 µg/mL | neutralization IC80 [46]: 0.45 µg/mL | neutralization IC80 [47]: 0.04 µg/mL | neutralization IC80 [48]: 0.16 µg/mL | neutralization IC80 [49]: 0.18 µg/mL | neutralization IC80 [50]: 0.007 µg/mL

B2: NIH45-46^G54F IgG (antibody, name in Kabat numbering, V domains shown)
VH: B1 VH with W55F
VL: B1 VL
neutralization IC50 [1]: 0.04 µg/mL | neutralization IC50 [2]: < 0.001 µg/mL | neutralization IC50 [3]: 0.064 µg/mL | neutralization IC50 [4]: > 50 µg/mL | neutralization IC50 [5]: 0.022 µg/mL | neutralization IC50 [6]: 0.37 µg/mL | neutralization IC50 [7]: 0.32 µg/mL | neutralization IC50 [8]: 7.91 µg/mL | neutralization IC50 [9]: 0.36 µg/mL | neutralization IC50 [10]: 0.11 µg/mL | neutralization IC50 [11]: 0.1 µg/mL | neutralization IC50 [12]: 0.12 µg/mL | neutralization IC50 [13]: 0.04 µg/mL | neutralization IC50 [14]: 0.02 µg/mL | neutralization IC50 [15]: < 0.001 µg/mL | neutralization IC50 [16]: > 50 µg/mL | neutralization IC50 [17]: 0.008 µg/mL | neutralization IC50 [18]: 0.03 µg/mL | neutralization IC50 [19]: 0.56 µg/mL | neutralization IC50 [20]: 0.015 µg/mL | neutralization IC50 [21]: 0.41 µg/mL | neutralization IC50 [22]: 0.89 µg/mL | neutralization IC50 [23]: 0.02 µg/mL | neutralization IC50 [24]: 0.09 µg/mL | neutralization IC50 [25]: 0.08 µg/mL | neutralization IC80 [26]: 0.13 µg/mL | neutralization IC80 [27]: 0.024 µg/mL | neutralization IC80 [28]: 0.062 µg/mL | neutralization IC80 [29]: 0.24 µg/mL | neutralization IC80 [30]: 0.029 µg/mL | neutralization IC80 [31]: > 50 µg/mL | neutralization IC80 [32]: > 50 µg/mL | neutralization IC80 [33]: 0.14 µg/mL | neutralization IC80 [34]: 0.046 µg/mL | neutralization IC80 [35]: 0.27 µg/mL | neutralization IC80 [36]: > 50 µg/mL | neutralization IC80 [37]: > 50 µg/mL | neutralization IC80 [38]: 0.41 µg/mL | neutralization IC80 [39]: 0.019 µg/mL | neutralization IC80 [40]: > 50 µg/mL | neutralization IC80 [41]: > 50 µg/mL | neutralization IC80 [42]: 0.07 µg/mL | neutralization IC80 [43]: 0.135 µg/mL | neutralization IC80 [44]: 0.028 µg/mL | neutralization IC80 [45]: 1.38 µg/mL | neutralization IC80 [46]: 0.51 µg/mL | neutralization IC80 [47]: 0.14 µg/mL | neutralization IC80 [48]: 0.43 µg/mL | neutralization IC80 [49]: 0.23 µg/mL | neutralization IC80 [50]: 0.016 µg/mL
